Publication PMC3420917, “A Combinatorial Amino Acid Code for RNA Recognition by Pentatricopeptide Repeat Proteins” (PLoS Genetics, 2012)
Changes are numbered by the printed parent chain.

Columns and labels:
[1] = target: the molecule itself; assay: AUC; sedimentation velocity; rPPR10 alone at 3, 6 and 12 µM; 20°C, 50,000 rpm, interference optics; 250 mM NaCl, 50 mM Tris-HCl pH 7.5, 5 mM ß-mercaptoethanol; monomer to dimer
PPR10 TD variant [2] = target: T1, PPR10 TD variant (maize, UniProt B8Y6I0 96-786, N284T;N319T;N349D); assay: EMSA; EMSA: radiolabeled RNA 15 pM, protein 0, 5, 10, 20 nM; binding buffer and temperature by reference [12]; protein stock in 400 mM NaCl, 50 mM Tris-HCl pH 7.5, 5; details: protein: recombinant; tags: MBP fusion removed by TEV cleavage; label: radiolabeled; single-stranded
T1 sequence: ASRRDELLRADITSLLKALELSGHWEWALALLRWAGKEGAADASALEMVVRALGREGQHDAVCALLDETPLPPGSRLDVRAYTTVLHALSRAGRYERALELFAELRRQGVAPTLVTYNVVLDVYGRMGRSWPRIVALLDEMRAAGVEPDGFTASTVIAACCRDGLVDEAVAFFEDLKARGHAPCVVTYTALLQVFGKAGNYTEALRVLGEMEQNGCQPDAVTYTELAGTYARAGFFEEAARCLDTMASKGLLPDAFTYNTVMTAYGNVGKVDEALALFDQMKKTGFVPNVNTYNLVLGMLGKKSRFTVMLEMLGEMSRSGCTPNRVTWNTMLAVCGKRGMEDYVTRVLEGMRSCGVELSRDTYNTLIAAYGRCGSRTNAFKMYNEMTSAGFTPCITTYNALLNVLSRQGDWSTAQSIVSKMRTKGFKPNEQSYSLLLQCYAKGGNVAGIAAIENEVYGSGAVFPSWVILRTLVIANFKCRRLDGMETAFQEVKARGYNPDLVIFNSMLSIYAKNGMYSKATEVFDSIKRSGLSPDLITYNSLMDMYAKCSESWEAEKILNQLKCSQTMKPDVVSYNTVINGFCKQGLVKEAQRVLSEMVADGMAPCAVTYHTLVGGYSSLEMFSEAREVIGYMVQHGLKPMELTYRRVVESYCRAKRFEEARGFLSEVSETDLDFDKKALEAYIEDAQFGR

PPR10 TN variant [3] = target: T2, PPR10 TN variant (maize, UniProt B8Y6I0 96-786, N284T;D314N;N319T); assay: as above; details: protein: recombinant; tags: MBP fusion removed by TEV cleavage; label: radiolabeled; single-stranded
T2 sequence: T1 sequence with D219N, D254N

PPR10 TD variant [4] = target: T1, PPR10 TD variant; assay: EMSA; high affinity; EMSA: radiolabeled RNA 15 pM, protein 0, 5, 10, 20 nM; binding buffer and temperature by reference [12]; protein stock in 400 mM NaCl, 50 mM Tris-HCl pH 7.5, 5; details: protein: recombinant; tags: MBP fusion removed by TEV cleavage; label: radiolabeled; single-stranded
rPPR10 wild-type = target: T3, rPPR10 wild-type (maize, UniProt B8Y6I0 96-786); assay: EMSA; EMSA: radiolabeled RNA 15 pM, protein 0, 5, 10, 20 nM; binding buffer and temperature by reference [12]; protein stock in 400 mM NaCl, 50 mM Tris-HCl pH 7.5, 5; details: protein: recombinant; tags: MBP fusion removed by TEV cleavage; label: radiolabeled; single-stranded
T3 sequence: T1 sequence with T189N, T224N, D254N

PPR10 TN variant [5] = target: T2, PPR10 TN variant; assay: EMSA; high affinity; EMSA: radiolabeled RNA 15 pM, protein 0, 5, 10, 20 nM; binding buffer and temperature by reference [12]; protein stock in 400 mM NaCl, 50 mM Tris-HCl pH 7.5, 5; details: protein: recombinant; tags: MBP fusion removed by TEV cleavage; label: radiolabeled; single-stranded

B1: Recombinant PPR10 (natural protein, maize, UniProt B8Y6I0 96-786, looked up)
chain: T1 sequence with T189N, T224N, D254N
notes: PPR10, maize chloroplast pentatricopeptide repeat protein (19 PPR motifs); mature PPR10 lacking the plastid targeting peptide; monomeric molecular weight of rPPR10 printed as 82.6 kDa; also called rPPR10
[1]
  stoichiometry N: 2

B2: wild-type RNA (EMSA) (ssRNA)
RNA: GUAUCCUUAACCAUUUC
PPR10 TD variant [2]
  binding result: no binding
PPR10 TN variant [3]
  binding result: no binding

B3: GG RNA (ssRNA)
RNA: GUAGGCUUAACCAUUUC
PPR10 TD variant [4]
  binding result: binds
rPPR10 wild-type
  binding result: no binding

B4: AA RNA (ssRNA)
RNA: GUAAACUUAACCAUUUC
PPR10 TN variant [5]
  binding result: binds
rPPR10 wild-type
  binding result: no binding
